Results taken from article PMC6457526, “Structure-based molecular characterization and regulatory mechanism of the LftR transcription factor from Listeria monocytogenes: Conformational flexibilities and a ligand-induced regulatory mechanism” (PLoS ONE, 2019).

Columns and labels:
LftR = target: T1, LftR (Listeria monocytogenes, UniProt L8DXR9); test: fluorescence polarization assay; assay type: binding
T1 construct: full length, 108 residues, expressed in E. coli; homodimer

[1] = target: the molecule itself; test: SEC; Superdex 200 10/300, 20 mM HEPES pH 7.4, 150 mM NaCl; apparent molecular weight from gel filtration standards
LftR Y28A = LftR Y28A (Listeria monocytogenes, UniProt Q8Y923 1-108, Y28A); test: fluorescence polarization; FP: 28-mer OP-1 with 5' fluorescein, ex 485 nm / em 535 nm, single-site fit (Prism 5); buffer, salt, pH and temperature of FP and EMSA not given in the material; conditions: protein: recombinant; tags: C-terminal His6; chain copies: 2; label: 5' fluorescein on top strand
LftR K56A = LftR K56A (Listeria monocytogenes, UniProt Q8Y923 1-108, K56A); test: as above; conditions: protein: recombinant; tags: C-terminal His6; chain copies: 2; label: 5' fluorescein on top strand
LftR K9A = LftR K9A (Listeria monocytogenes, UniProt Q8Y923 1-108, K9A); test: as above; conditions: protein: recombinant; tags: C-terminal His6; chain copies: 2; label: 5' fluorescein on top strand
LftR R53A = LftR R53A (Listeria monocytogenes, UniProt Q8Y923 1-108, R53A); test: as above; conditions: protein: recombinant; tags: C-terminal His6; chain copies: 2; label: 5' fluorescein on top strand
LftR wildtype = LftR wildtype (Listeria monocytogenes, UniProt Q8Y923 1-108); test: as above; conditions: protein: recombinant; tags: C-terminal His6 (LftRCtH); chain copies: 2; label: 5' fluorescein on top strand
LftR L69A = LftR L69A (Listeria monocytogenes, UniProt Q8Y923 1-108, L69A); test: as above; conditions: protein: recombinant; tags: C-terminal His6; chain copies: 2; label: 5' fluorescein on top strand

Molecule: CC[n+]1c(-c2ccccc2)c2cc(N)ccc2c2ccc(N)cc21 [ethidium bromide]
- Kd (LftR): 3700 ± 1170 nM

B1: LftR_(ΔNtH), tag-free LftR protein after thrombin removal of the N-terminal His6 tag (natural protein)
chain: GSAKDPMKGLTELLKGSLEGMILERISRGETYGYEITKYLNDLGFDEIVEGTVYTILVRLEKKGLVEIEKKKSELGPPRKFYTLSPAGEEELAIFWKRWDFIQGKIMQVKGGQA
notes: six additional vector-derived amino acids left at the N-terminus after thrombin cleavage (numbered -5 to 0 in the structure); LftR, PadR-2 subfamily transcription factor of Listeria monocytogenes, encoded by lmo0719; 108 residues; Expressed from a modified pET49b vector with N-terminal His6 tag and thrombin site; also called Listeria protein facilitating invasion/transcriptional regulator; …
- stoichiometry N [1]: 2

B2: OP-1 28-mer dsDNA (FP) (dsDNA)
DNA 1: GTATTACTATATACTTGTACCTAGTAAC
DNA 2: GTTACTAGGTACAAGTATATAGTAATAC
- Kd (LftR Y28A): 89.6 ± 1.9 nM
- Kd (LftR K56A): 28.7 ± 2.3 nM
- Kd (LftR K9A): 197 ± 12.1 nM
- Kd (LftR R53A): 40.1 ± 0.8 nM
- Kd (LftR wildtype): 6.2 ± 1.5 nM
- Kd (LftR L69A): 62.6 ± 1.3 nM

B3: LftRCtH, LftR with a C-terminal His6 tag (natural protein)
chain: MKGLTELLKGSLEGMILERISRGETYGYEITKYLNDLGFDEIVEGTVYTILVRLEKKGLVEIEKKKSELGPPRKFYTLSPAGEEELAIFWKRWDFIQGKIMQVKGGQA
notes: LftR, PadR-2 subfamily transcription factor of Listeria monocytogenes, encoded by lmo0719; 108 residues; Cloned NdeI/XmaI into a modified pET49b vector with a C-terminal His6 tag; source: E. coli BL21 (DE3), purified (Ni-NTA); not shown: His6, C-terminal, kept
- stoichiometry N [1]: 2
